Assay results taken from the supplement of paper PMC10567573.

B1: MLL5 (parent)
chain: TYLCERCQPRNLDKERAVLLQRRK
B2: LYSMD4 (parent)
chain: LLQRELAQEDSLNKLALQYGCKVA

Variants of: B1
Test: protein stability index of a GFP-peptide fusion (GPS, HEK-293T) (PSI 1-6); higher = more stable
Conditions: c terminus: a fixed tail appended
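Also: lentivirally expressed fusions sorted by FACS into six bins by GFP to DsRed ratio, PSI derived from sequencing read proportions per bin multiplied by bin number.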

Protein stability index of substitutions, site by site:
L3: I 1.55, M 2.02
Q21: H 3.22, M 2.46, S 1.99
K14: H 1.74
R6: P 3.84
R22: E 1.76, W 2.14, D 2.2
Y2: I 2.77
R10: Y 2.04, D 2.25, P 2.67
E15: G 2.71, W 1.94, H 2.71
L12: I 2.17, P 2.69
T1: V 1.5
K24: I 1.6
R23: C 2.31, S 2.35, P 2.5, E 1.72, H 2.05
L20: W 2.31
Q8: Y 1.5, N 1.55
N11: E 1.52, C 2.11
A17: K 2.26, Q 1.88, Y 2.18, L 1.45
C7: I 3.76, H 3.12
C4: E 4.31
D13: F 1.78, W 2.16, P 1.92
L19: G 3.37
P9: S 2.27

Variants of: B2
Test: as above
Conditions: c terminus: a fixed tail appended

Protein stability index, by site and new letter:
S11: H 2.01, M 2.39, A 1.76, D 1.88, P 1.48, R 2.65, G 2.25, K 2.01, I 1.04, Y 2.28, T 1.38
N13: W 1.8, F 1.65, S 1.84, C 2.49, K 1.94, G 1.23, T 1.3, E 1.65, R 2.23, Q 1.38, D 1.03, P 1.95
A24: R 1.95, Y 2.75, W 4.48, P 2.64, D 2.37, H 1.03, G 2.1, N 1.98, K 1.82
Q18: Y 2.22, W 2.51, E 2.65, I 2.4, A 1.65, M 1.72, P 2.95, K 2.42, N 3.62, T 1.18
Q8: L 1.58, M 1.92, T 1.45, G 1.42, K 1.66, D 4.68, S 2.25, R 1.47, N 3.38, F 1.59, A 1.73, H 1.54, E 1.84, P 1.48
E5: N 1.71, T 2.55, D 1.44, V 2.88, H 1.91, A 3.05, R 2.05, S 1.87, K 1.76, Y 2.21, Q 1, F 3.86
D10: K 1.86, Q 2.67, F 1.46, R 1.68, H 1.22, I 1.04, G 1.9, L 2.1, P 1.86, Y 1.82, E 1.83, T 1.92
C21: N 3.29, T 3.03, H 2.89, I 1.91, R 2.54, P 2.59, S 2.49, K 2.63, M 1.47, G 2.66, V 1.85, L 1.95, E 3.43, Q 2.98
L1: T 1.8, Y 2.5, N 2.09, P 1.51, H 1.91, E 1.5, K 1.99, D 1.96, Q 1.32, W 2.31, R 1.6
Y19: K 2.11, Q 3.78, T 3.17, P 3.28, D 4.57, M 2.02, S 3.13, R 1.85, F 2.06, N 3.4, C 1.66
K22: S 2.2, G 2.93, L 1.62, T 1.32, N 2.65, A 2.7, H 3.15, Y 1.35, Q 2.21, D 2.08, P 3.45, R 1.29
A7: C 1.73, V 1.48, P 1.97, E 1.8, W 1.95, K 2.14, I 2.63, H 2.72, Q 2.02, T 1.87, R 1.49
L2: A 2.26, I 2.18, T 1.91, C 1.67, N 2.04, S 2.06, M 2.27, D 2.63, K 2.6, P 2.31, E 2.92, Q 1.86, Y 1.61
K14: R 1, D 2.23, W 3.01, G 2.91, F 2.4, Q 2.22, C 2.37, N 1.86, T 1.66, H 2.07, S 1.75
Q3: I 1.46, P 1.41, S 3.41, M 1.65, L 1.59, Y 1.3, H 2.24, N 2.3
L15: P 3.97, G 3.11, K 3.1, S 2.88, Q 3.65, V 1.62, Y 2.27, W 1.2, H 2.67, D 4.51, C 2.34, M 2.85, F 1.07, I 2.11
E9: R 1.94, W 1.02, L 3.17, A 1.53, D 2.68, M 1.85, I 2.69, N 2.4, Y 1.9, K 1.35, C 1.53, Q 2.2
L12: H 3.65, M 1.97, P 3.54, I 2.06, A 2.5, R 2.49, T 3.48, K 2.02, V 2.31, Y 2.38, F 2.33, C 1.72, D 4.13, S 3.54, N 3.52
V23: A 3.18, R 2.47, K 2.92, C 1.83, N 3.62, H 2.77, G 2.35, E 3.4, I 1.89, L 2.04, S 2.9, P 3.4, W 2.34, F 2.96, M 1.75
G20: C 1.65, N 2.37, F 1.13, H 3.73, Q 4.53, W 3.05, I 2.42, P 2.66, K 1.62, E 1.7, D 2.94, M 3.62, A 1.09
L17: E 1.82, I 1.45, T 1.09, Q 2.12, Y 1.18, V 2.06, F 3.31, N 1.57, G 2.98, K 2.5, A 1.84, W 2.65, H 2.29, C 1.49, P 2.98
R4: D 2.08, S 1.25, V 3.51, T 1.9, G 1.24, K 2.82, C 3.8, A 1.64, P 2.06, L 2.03, Y 3.28, H 1.56
L6: N 2.24, I 1.52, M 1.37, R 1.61, Q 2.18, G 1.95, T 1.92, K 2.11, D 2.5, A 2.06, Y 1.92, E 3, C 2.02
A16: H 3.4, N 1.98, G 2.18, R 1.9, I 2.66, Y 1.26, S 1.98, K 2.48, D 3.12, E 1.65, Q 1.86
